Reference: article PMC11512355

Molecular target: recombinant porcine astrovirus 4 (PoAstV4) capsid spike protein (porcine astrovirus 4)
Assay: SEC; Superdex 200 16/600 column in TBS pH 8.0 (10 mM Tris-HCl, 150 mM NaCl), compared with BioRad gel filtration standards

recombinant porcine astrovirus 4 (PoAstV4) capsid spike protein (domain or fragment)
stoichiometry N: 2
